In article doi:10.1101/2020.12.09.417477 (bioRxiv, 2020):

B1: CobB (enzyme, E. coli, UniProt P75960 1-279, looked up)
chain: MLSRRGHRLSRFRKNKRRLRERLRQRIFFRDKVVPEAMEKPRVLVLTGAGISAESGIRTFRAADGLWEEHRVEDVATPEGFDRDPELVQAFYNARRRQLQQPEIQPNAAHLALAKLQDALGDRFLLVTQNIDNLHERAGNTNVIHMHGELLKVRCSQSGQVLDWTGDVTPEDKCHCCQFPAPLRPHVVWFGEMPLGMDEIYMALSMADIFIAIGTSGHVYPAAGFVHEAKLHGAHTVELNLEPSQVGNEFAEKYYGPASQVVPEFVEKLLKGLKAGSIA
B2: acetylated CobB (enzyme, E. coli, UniProt P75960 1-279, looked up)
chain: B1 chain
modifications: acetyl-lysines (acetylated in vitro with acetyl phosphate); positions are in Supplementary Table 2

Assays:
Assay in all cases: pull-down
[1] = biological target: His-Prs-K182A (E. coli, UniProt P0A717 1-315, K182A)
[2] = biological target: His6-Prs (E. coli, UniProt P0A717 1-315)
[3] = biological target: His-PrsK194A (E. coli, UniProt P0A717 1-315, K194A)
[4] = biological target: His-Prs-K231A (E. coli, UniProt P0A717 1-315, K231A)

Binder | binding result [1] | binding result [2] | binding result [3] | binding result [4]
B1 | binds | binds | binds | binds
B2 |  | binds |  | 
